Assay [1] deals with T1, UBXN7-UAS recombinant protein (human, UniProt O94888 94-284).
T1 construct: UAS domain of human UBXN7 (aa 94-284); also called UAS domain; source: E. coli BL21, purified (Glutathione Sepharose, released by GST-3C protease)
T1 sequence (looked up): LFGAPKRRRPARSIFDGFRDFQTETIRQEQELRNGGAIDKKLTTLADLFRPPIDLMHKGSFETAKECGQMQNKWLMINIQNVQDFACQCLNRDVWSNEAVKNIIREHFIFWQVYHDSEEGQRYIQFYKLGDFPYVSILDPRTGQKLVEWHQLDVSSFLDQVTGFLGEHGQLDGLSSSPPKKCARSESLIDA
Put plainly: pull-down; in vitro: GST-RING domains on beads with UBE2D2, with or without UBXN7-UAS; Coomassie staining. Particulars: both partners purified.

The target in the next assay is T2, UBE2D2 (human, UniProt P62837 1-147).
T2 construct: UBE2D2 without GST; probably released from GST-UBE2D2 by GST-3C protease as told in general for the PGEX4T3-3C constructs; also called recombinant UBE2D2; source: recombinant
The assay is described as above. Particulars: both partners purified.

B1: GST-TOPORS-RING (domain or fragment, human, UniProt Q9NS56 68-176, looked up)
chain: MASAAKEFKMDNFSPKAGTSKLQQTVPADASPDSKCPICLDRFDNVSYLDRCLHKFCFRCVQEWSKNKAECPLCKQPFDSIFHSVRAEDDFKEYVLRPSYNGSFVTPDR
notes: human TOPORS-RING (aa 68-176); the methods tell its cloning into p3xFlag-CMV-10 only, not into the GST vector; also called minimal RING domain of TOPORS; TOPORS RING domain; source: recombinant, on Glutathione Sepharose
For the molecule B1, the binding result (in assay [1]; with UBE2D2) was “binds” throughout.

The record behind these values is article PMC10080908 (BMC Biology, 2023).
